Here are results for 1 molecule from paper PMC6488296, “Optogenetic control shows that kinetic proofreading regulates the activity of the T cell receptor” (eLife, 2019).

This assay concerns the target T1, PhyB_(1-651)-Avitag-His6 (A. thaliana, UniProt P14713 1-651, phycocyanobilin chromophore; biotin on the Avitag).
T1 construct: phytochrome B (PhyB), Arabidopsis thaliana, the light-responsive N-terminal 651 amino acids; 740 nm light puts them in the OFF state; also called PhyB(660); PhyB(740); source: E. coli BL21(DE3) co-transformed with p171 (phycocyanobilin production), 50 uM biotin in the medium, purified (Ni-NTA); not shown: Avitag, C-terminal, kept; His6, C-terminal, kept
T1 sequence (looked up): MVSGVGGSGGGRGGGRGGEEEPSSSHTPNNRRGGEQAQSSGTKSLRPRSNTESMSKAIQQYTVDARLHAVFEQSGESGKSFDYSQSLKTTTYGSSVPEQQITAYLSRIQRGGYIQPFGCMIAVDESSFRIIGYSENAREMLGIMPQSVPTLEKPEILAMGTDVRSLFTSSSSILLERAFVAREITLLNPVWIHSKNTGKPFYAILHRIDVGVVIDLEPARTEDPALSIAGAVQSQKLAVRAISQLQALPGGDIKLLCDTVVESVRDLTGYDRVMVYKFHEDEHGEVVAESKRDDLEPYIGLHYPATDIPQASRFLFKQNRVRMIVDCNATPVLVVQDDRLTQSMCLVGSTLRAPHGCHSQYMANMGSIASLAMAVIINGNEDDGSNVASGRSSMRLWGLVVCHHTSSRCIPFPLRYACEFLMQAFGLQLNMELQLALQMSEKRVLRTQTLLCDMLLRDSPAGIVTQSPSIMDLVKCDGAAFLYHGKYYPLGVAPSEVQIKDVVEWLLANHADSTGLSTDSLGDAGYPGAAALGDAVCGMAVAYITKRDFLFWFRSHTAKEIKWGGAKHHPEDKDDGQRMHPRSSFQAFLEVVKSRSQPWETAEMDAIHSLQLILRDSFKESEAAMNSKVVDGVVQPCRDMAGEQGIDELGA
The experiment in a line: SEC; 200 ug PhyB illuminated with 660 nm light, added in a 2:1 molar ratio to MBP-PIF (limiting MBP-PIF); 60 min at room temperature; Superdex 200 10/300 GL; PhyB detected at 671 nm. The settings on record: both partners purified. In general terms: In gel filtration, larger molecules generally elute earlier.

B1: MBP-PIF6_(1-100)-His6 (domain or fragment, A. thaliana, UniProt Q8L5W7 1-100, looked up)
chain: MMFLPTDYCCRLSDQEYMELVFENGQILAKGQRSNVSLHNQRTKSIMDLYEAEYNEDFMKSIIHGGGGAITNLGDTQVVPQSHVAAAHETNMLESNKHVD
notes: also called MBP-PIF(wt); pOSY061; source: E. coli BL21(DE3), purified (Ni-NTA); not shown: His6, C-terminal, kept
For B1, the binding result is “binds”.
